These are literature values, as cited in paper PMC3786701.

This series concerns the target SNARE complex (Rattus norvegicus) (UniProt P32851).
UniProt P32851, sequence (P32851 whole entry, chain 1 of 3): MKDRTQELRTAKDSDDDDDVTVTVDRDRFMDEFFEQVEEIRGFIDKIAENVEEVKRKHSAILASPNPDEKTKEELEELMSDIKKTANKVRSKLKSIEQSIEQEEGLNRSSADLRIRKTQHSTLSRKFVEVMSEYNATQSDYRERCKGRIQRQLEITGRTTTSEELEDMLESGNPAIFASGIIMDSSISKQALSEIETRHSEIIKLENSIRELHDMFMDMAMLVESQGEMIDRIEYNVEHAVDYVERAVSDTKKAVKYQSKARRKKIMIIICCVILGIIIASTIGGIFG
UniProt P32851, sequence (B2RAU4 whole entry, chain 2 of 3, further chain): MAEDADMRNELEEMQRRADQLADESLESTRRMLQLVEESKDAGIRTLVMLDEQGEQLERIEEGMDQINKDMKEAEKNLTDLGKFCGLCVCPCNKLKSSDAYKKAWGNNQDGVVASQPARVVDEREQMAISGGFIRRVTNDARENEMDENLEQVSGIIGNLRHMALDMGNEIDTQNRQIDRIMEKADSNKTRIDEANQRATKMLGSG
UniProt P32851, sequence (P63044 2-116, chain 3 of 3, further chain): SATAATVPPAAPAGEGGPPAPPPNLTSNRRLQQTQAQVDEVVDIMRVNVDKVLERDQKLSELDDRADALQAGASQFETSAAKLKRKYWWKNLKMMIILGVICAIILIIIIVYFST

For the substance “synaptotagmin-1 C2AB (from UniProt P21707)”, the Kd is 1000 nM.
